Source: the DeepSol protein solubility set

Assay: soluble on expression in E. coli; label from the status in PepcDB or PDB records

| Sequence | soluble on expression in E. coli |
| --- | --- |
| TKDWKWKLSFNATTYKNKITSLPAEEMWSGNKKWVKGGSLYDFYLVEWAGVNPENGNPTWYRYNTNGEKITTEDYSSTTPDDKVKCGNSLPDWTGGLQSDLSFKDFTLSFLFSYSIGGKIYNGDKVSLMSQGPTGTGWSVDMLDRWTPENPYTDVPRLTTSPKSSWTNSSNRFLVDRSYLRLKNITFSYNLPKSLLNTLTLKDASIFFQAENMLTLAKQQGLDPEQTFGGSTYYRYPAMKTISFGINVKL | not soluble |
| MKKTTLMSAVVATLSLVGCQSTTGSSDAQPEQTSHISQAVYEVEFHAAQSFLSQASQLEQSFADFCLAPKNDVEPVQQQWHSTMLAWMALQGQERGPATALEQSWNVQFWPDKKNTTGRKMSALTKADKVWTVEEISTQSVTVQGLGALEWLLYDDASTLNTNSNVCASGVAIAENLHDKAQIIANSWAENPWKSLQKTEWESEYISLLSNQLEYSMKKLSRPLAKIGHPRPYFSESWRSETSLSNLKANLESLHQLYFANGKGLDALLRAQGKTQLADRVAYQFDMALETWPEDKSLFSALQSVDGYRLVLAQYNKLEQLKYLIHEEVAIELGVVIGFNATDGD | not soluble |
| MGSDKIHHHHHHMKKHSPIGCISKAGLFSKLPHKMLEKIAPISTHQEYFEKGSFIRQPGDGKNGMMFVDKGSAKIYNLNRDGKETVLGVLNKGDYDGQQNLFQDDSHENFIQALQDTYICSISRADFQRLLKDTPDLTLNLLNNFGEKLVAIETNSVRRNSMNAKDRLMDYLVEQSQKNGATKFTLPLKKKDLASYLGTSPETLSRQLKSLEKEGKIKVNRREITIVKD | not soluble |
| MVQESTMICVDNSEYMRNGDFQPTRLQSQQDAVNLVTQCKLRANPENAVGILSMANSVQVLSSLSTEQGRLMMKNHSIEPFGKCNFIAGIKIAHLALKHRQNRNHKMRVVLFIGSPLEEIEMNELVKIAKKMKKEKVLCDVIMFGENESDGHEKFSTFVDTLNGKEGSGSSLIVVPQGSSLTDALLQSSVCKNEDGQAAFGGGGNGMDNAFGMDVENDPDLALALRVSMEEERARQAAAAAANGGAADSGADAEVAAAAAAVPLEEMDMGAMTEEQQLEWALRLSMQENAPAEQPQVQHEQMDVDGAPAVGGDNLDDLMNNPELLQQIVDDLPAANAEKDDDKEKK | not soluble |
| GMDELELRIRKAEKLVQDAKKEFEMGLYERCCSTAYYAMFHAAKAMLLGYGRDSKTHRGTIYLIWECREELGLSDDDCSKLSRAFDLREESDYGIYKEVSKDLAIKILKDAEIFVQKAKNAVNKNR | soluble |
| MDPELQCIRECRLAQLKNNSGGTNGDRNSGANNGGGENSAPVGAAIANFLEPQALERLSRVALVRRDRAQAVETYLKKLIATNNVTHKITEAEIVSILNGIAKQQNSQNNSKIIFEAAALEHHHHHH | soluble |
| MSIVSISYNQEEYIREALDGFAAQRTEFPVEVIIADDASTDATPRIIGEYAARYPQLFRPILRQTNIGVHANFKDVLSAARGEYLALCEGDDYWTDPLKLSKQVKYLDRHPETTVCFHPVRVIYEDGAKDSEFPPLSWRRDLSVDALLARNFIQTNSVVYRRQPSYDDIPANVMPIDWYLHVRHAVGGEIAMLPETMAVYRRHAHGIWHSAYTDRRKFWETRGHGMAATLEAMLDLVHGHREREAIVGEVSAWVLREIGKTPGRQGRALLLKSIADHPRMTMLSLQHRWAQTPWRRFKRRLSTELSSLAALAYATRRRALEGRDGGYRETTSPPTGRGRNVRGSHA | not soluble |
| MAPSGGQEAQICDSETFGDSDFVVVANRLPVDLERLPDGSTTWKRSPGGLVTALEPVLRRRRGAWVGWPGVNDDGAEPDLHVLDGPIIQDELELHPVRLSTTDIAQYYEGFSNATLWPLYHDVIVKPLYHREWWDRYVDVNQRFAEAASRAAAHGATVWVQDYQLQLVPKMLRMLRPDLTIGFFLHIPFPPVELFMQMPWRTEIIQGLLGADLVGFHLPGGAQNFLILSRRLVGTDTSRGTVGVRSRFGAAVLGSRTIRVGAFPISVDSGALDHAARDRNIRRRAREIRTELGNPRKILLGVDRLDYTKGIDVRLKAFSELLAEGRVKRDDTVVVQLATPSRERVESYQTLRNDIERQVGHINGEYGEVGHPVVHYLHRPAPRDELIAFFVASDVMLVTPLRDGMNLVAKEYVACRSDLGGALVLSEFTGAAAELRHAYLVNPHDLEGVKDGIEEALNQTEEAGRRRMRSLRRQVLAHDVDRWAQSFLDALAGAHPRGQG | not soluble |
| MENCPLVSVIVCAYNAEQYIDESISSIINQTYENLEIIVINDGSTDLTLSHLEEISKLDKRIKIISNKYNLGFINSLNIGLGCFSGKYFARMDADDIAKPSWIEKIVTYLEKNDHITAMGSYLEIIVEKECGIIGSQYKTGDIWKNPLLHNDICEAMLFYNPIHNNTMIMRANVYREHKLIFNKDYPYAEDYKFWSEVSRLGCLANYPEALVKYRLHGNQTSSVYNHEQNETAKKIKRENITYYLNKIGIDIKVINSVSLLEIYHVDKSNKVLKSILYEMYMSLDKYTITSLLHFIKYHLELFDLKQNLKIIKKFIRKINVIF | not soluble |
| MESKHKLSINQWALEDRPREKMMEKGAAALSDAELLAILIGSGNTEESAVELMRRLLLSCDNNLNSLAKWEVCDYSRFKGMGPAKSITVMAALELGKRRKLQNIQERPRISCSRDIYDIFQPVMCDLEQEEFWVLLLNQATRLIDKVRISTGGIDGTYTDVRTILREALLQRATQIAVVHNHPSGNIQPSQPDRTLTEHIRRAADTMNIRLIDHVIVCEDKFYSFADEGLL | not soluble |
| MATGTATEKPKIVWNEGRHRFETDDHEAFIEYKMKNDGKVMDLVRTFVPPSKAGLGLASHLCVAAFEHASEHSFSIIPTCSYVSVYISSFLKKLR | not soluble |
| MGSDKIHHHHHHMDDLMGYVIGETSNTELNFLAKHMPEIGSYVSINYCDLEILGMVESVNQGCKIFEDVYNVKDFEKLKDFENNDSYYTIGKIKILGDVKNMQIPRIPPKPGTEVYDASEKILGEIFSKGTIEIGNLISADSKVKLDVNKLCSRHLAILAITGMGKSNTVSVLLEELNNIHATVLVFDMHREYVEIEAKNSTIRRNIIRPKINVYNMSYDALMSLAGVDPQATVQRAMGRRAMKKIKESKKEVDFNTVDEYINSIINELNYYMGMDEFKSKVDSILTLIMRFEDLMTFKDKITAINYNPIQDIKENYVNIVDISELDESSTDLIISYFTGEILKDRKKVLWDTKVAKPIFIIYEEAHLIVPQNRPTKSKIPISKIAREGRKFGVGICLVSQRPKTLDQESLSQCNNFIISKLIEPSDQKHVQHASENLSEDLLNQLPGLNVGEAVIIGPCLKIPAMVKIKRFEGEYGGEDVKFDELWTTEKEKNIPEFIESNELFNDDL | not soluble |
| MSSKSTKRAKIEDPKDNVFMVEKVLDKRTGKAGRDEFLIQWQGFPESDSSWEPRENLQCVEMLDEFEREFSKREKPIRKRHSQKPEPSEDQADPEEDKDEKKETNQNDKFSLEGKQLKCIVGLTKGPGELHFLCKFSDDTARLLPAKEVNSRYRPFVDAYGEFLKKKMERRHKRISEGKKKRSIEEDDADDEWPEMPPGHRILTTEEHELQRRKESKISQDVEMTEAFQQTAADMLNDMHMAANGDLLSSFPQDFLEDSGDGEVHEAAILSVFDDNSNSPPPCPIVVDTVPDDDDSLLFPRNS | soluble |
| MSLKQLVVKIETDNGIIGWGEAQSPVSPNTTATIIKDIVEPLTIGKDIYDVESIWHNNYSAKRERGHYTGFYIDAICGVDIAIWDAIGKSLKMPTCKAMGGAHRKSVALYNGIGGTEPEEVADQAEWSVSKGYKFVKMHLKETLEKDIEIARKVRERVGDSIGIMIDVHMGFDTFNVTKLGKELEKLNLLWLESPSDPTDIPGLCEISRSLDIPIANGEWTRTKYEMREIFEKRAYDISMPDIARTGLTGGKQIASIAQLYNIPIAPHVGGGGIVSVASTLQFSLNTPNFLIMEHSEQGHAVKAMILSESFDAENGQYSLPNKPGLGIDVDENKLEKYKINPSEGHHHHHH | soluble |
